Reference: publication PMC11387253, “High sensitive aptasensing chronic myeloid leukemia on circular electrode-modified by single-walled carbon nanotube”

What was measured:
CD33 antigen = CD33 antigen (UniProt P20138 18-259); test: electrochemical (current-volt, SWCN-modified IDE); 100 nM CD33; Aptamer immobilized on APTMS-SWCN surface, PEG-COOH blocked; 30 min protein incubation; washes 10 mM PBS pH 7.4; room temperature; 0-2 V in 0.1 V steps
CD19 [1] = biological target: T1, CD19 (Homo sapiens, UniProt P15391 20-291); test: electrochemical (current-volt, SWCN-modified IDE); 10-100 nM CD19; LOD 10 nM; near saturation above 60 nM; Aptamer immobilized on APTMS-SWCN surface, PEG-COOH blocked; 30 min protein incubation; washes 10 mM PBS pH 7.4; room temperature; 0-2 V in 0.1 V steps; details: protein: recombinant
T1 sequence (P15391 20-291): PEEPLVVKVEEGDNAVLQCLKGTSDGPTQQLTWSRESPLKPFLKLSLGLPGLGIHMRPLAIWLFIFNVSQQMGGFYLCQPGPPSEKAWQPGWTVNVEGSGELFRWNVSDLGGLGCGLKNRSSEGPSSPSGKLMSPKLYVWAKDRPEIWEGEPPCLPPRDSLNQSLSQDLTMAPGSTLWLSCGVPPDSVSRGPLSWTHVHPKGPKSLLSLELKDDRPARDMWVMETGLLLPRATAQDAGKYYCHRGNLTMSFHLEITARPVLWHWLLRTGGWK

CD19 [2] = biological target: T1, CD19; test: electrochemical (current-volt, SWCN-modified IDE); 100 nM CD19; Aptamer immobilized on APTMS-SWCN surface, PEG-COOH blocked; 30 min protein incubation; washes 10 mM PBS pH 7.4; room temperature; 0-2 V in 0.1 V steps; details: protein: recombinant

CD33 antigen, sequence (P20138 18-259): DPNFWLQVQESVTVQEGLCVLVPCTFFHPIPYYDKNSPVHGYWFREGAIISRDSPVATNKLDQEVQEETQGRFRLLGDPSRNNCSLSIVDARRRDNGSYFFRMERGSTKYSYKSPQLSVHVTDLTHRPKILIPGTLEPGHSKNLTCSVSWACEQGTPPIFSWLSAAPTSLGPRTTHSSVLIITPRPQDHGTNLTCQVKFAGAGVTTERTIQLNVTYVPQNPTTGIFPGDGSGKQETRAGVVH

Row | Binder | binding result (CD33 antigen) | binding result (CD19 [1]) | binding result (CD19 [2])
1 | CD19 aptamer (ssDNA, 5' C6-COOH) DNA: TGCGTGTGTAGTGTGTCTGTTCTCCTTTTTTTGGTTGCTGCTCTTAGGGATTTGGGCGG | no binding | binds | 
2 | complementary aptamer (ssDNA, 5' C6-COOH) DNA: ACGCACACATCACACAGACAAGAGGAAAAAAACCAACGACGAGAATCCCTAAACCCGCC |  |  | no binding
